Source: publication PMC2768332

T1: KSRP (UniProt Q92945 1-711)
T1 sequence: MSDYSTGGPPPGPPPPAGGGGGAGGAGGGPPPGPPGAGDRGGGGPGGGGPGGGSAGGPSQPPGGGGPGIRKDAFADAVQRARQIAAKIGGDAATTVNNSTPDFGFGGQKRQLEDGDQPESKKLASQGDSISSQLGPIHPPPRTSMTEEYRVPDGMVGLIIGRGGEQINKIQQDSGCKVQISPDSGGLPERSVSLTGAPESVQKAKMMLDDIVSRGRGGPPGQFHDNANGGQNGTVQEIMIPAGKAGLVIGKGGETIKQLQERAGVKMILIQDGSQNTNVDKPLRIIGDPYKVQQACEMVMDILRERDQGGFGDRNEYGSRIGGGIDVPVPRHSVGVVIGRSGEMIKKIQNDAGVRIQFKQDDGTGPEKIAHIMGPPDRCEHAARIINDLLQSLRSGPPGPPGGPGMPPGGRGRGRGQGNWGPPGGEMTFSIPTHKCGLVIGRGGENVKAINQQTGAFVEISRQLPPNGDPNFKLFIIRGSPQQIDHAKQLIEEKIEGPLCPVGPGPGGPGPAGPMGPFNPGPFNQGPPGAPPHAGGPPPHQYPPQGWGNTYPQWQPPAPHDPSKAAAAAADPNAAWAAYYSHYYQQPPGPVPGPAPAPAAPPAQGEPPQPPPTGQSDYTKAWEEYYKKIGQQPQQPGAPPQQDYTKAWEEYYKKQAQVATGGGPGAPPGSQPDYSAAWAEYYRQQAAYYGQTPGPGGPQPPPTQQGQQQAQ


Target: T1, KSRP
Test: UV-crosslinking or EMSA

Binder | binding result
CUGUUGAAUCUCAUGG (ssRNA) [TL-miR-21 WT] | binds
CUCUUCAAUCUCAUGG (ssRNA) [TL-miR-21 M2] | no binding
